According to US20200054763A1 (DEBIOPHARM INTERNATIONAL S A, published 2020):

Target: T1, human CD37 (human, UniProt P11049 1-281)
T1 sequence: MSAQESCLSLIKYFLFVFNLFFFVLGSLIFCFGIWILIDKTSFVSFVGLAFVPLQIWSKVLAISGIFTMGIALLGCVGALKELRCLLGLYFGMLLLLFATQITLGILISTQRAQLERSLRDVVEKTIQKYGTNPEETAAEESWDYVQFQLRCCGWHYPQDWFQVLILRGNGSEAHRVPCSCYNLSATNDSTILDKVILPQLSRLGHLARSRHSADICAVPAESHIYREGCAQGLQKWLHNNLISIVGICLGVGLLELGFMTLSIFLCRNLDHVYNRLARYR
Experiment: cell-based or functional assay

B1: IMGN529 (naratuximab emtansine) (antibody, V domains shown)
VH: QVQVQESGPGLVAPSQTLSITCTVSGFSLTTSGVSWVRQPPGKGLEWLGVIWGDGSTNYHPSLKSRLSIKKDHSKSQVFLKLNSLTAADTATYYCAKGGYSLAHWGQGTLVTVSS
VL: DIQMTQSPSSLSVSVGERVTITCRASENIRSNLAWYQQKPGKSPKLLVNVATNLADGVPSRFSGSGSGTDYSLKINSLQPEDFGTYYCQHYWGTTWTFGQGTKLEIKR
modifications: maytansinoid DM1 linked through the SMCC linker; attachment residues and chain not stated
**Q.** B1 was tested. Which “median IC50, cell proliferation (MTT assay, 72 hours), B cell lymphoma cell lines (n=46)” value did it give?
**A.** 0.45 nM

**Q.** What about the “median IC50, cell proliferation (MTT assay, 72 hours), T cell lymphoma cell lines (n=8)” value of the same binder?
**A.** 22.5 nM

**Q.** And the “median IC50, cell proliferation (MTT assay, 72 hours), fifty-four lymphoma cell lines” value?
**A.** 0.79 nM
